Measured values reported in patent publication US8394929B2, “Nogo receptor-mediated blockade of axonal growth” (Yale University, priority 2000, dated 2013).

Assays:
3T3 fibroblasts = test: 3T3 fibroblast spreading; type: cell-based, mouse; details: substrate-bound / coated surfaces
Procedure: (a) is a schematic diagram which summarizes features of the Nogo proteins utilized in this study. (b) is a photograph of NIH-3T3 fibroblasts cultured on surfaces coated with Amino-Nogo, GST-Nogo-66 or no protein and stained for filamentous actin (scale bar, 40 μm). (c) is a photograph of chick E12 dorsal root ganglions cultured on surfaces coated with Amino-Nogo, GST-Nogo-66 or no protein (substrate-bound) or with 100 nM Nogo protein (soluble) (scale bar, 40 μm). (d) is a photograph of a gel and an immunoblot where purified Amino-Nogo-Myc-His protein was subjected to SDS-PAGE and stained with Commassie Brilliant Blue (CBB) or immunoblotted with anti-Myc antibodies (Myc) (molecular weight markers of 200, 116, 97, 65 & 45 kDa are at left). (e) is a graph displaying experimental data where the percentage of 3T3 fibroblasts with an area greater than 1200 μm^2 (spread) was measured from experiments as in (b) on Nogo-coated surfaces (black) or with soluble 100 nM Nogo preparations (blue) (AM, Amino-Nogo; AM+Myc, Amino-Nogo preincubated with anti-Myc antibody; AM+Myc+Mo, AM+Myc preincubated with anti-mouse IgG antibody; Myc+Mo, anti-Myc antibody plus anti-murine IgG antibody). (f) is a graph displaying experimental data where the percentage of spread COS-7 cells was determined after culture on Nogo-coated surfaces or with soluble 100 nM Nogo preparations. (g) is a graph displaying experimental data where the effects of purified preparations of GST-Nogo-66 or Amino-Nogo on growth cone morphology was assessed in E12 dorsal root ganglion cultures at the indicated concentrations after thirty minutes. […] (h) is a graph displaying experimental data where the neurite outgrowth per cell in […] dorsal root ganglion cultures was quantitated from experiments as in (c) on Nogo-coated surfaces or with soluble 100 nM Nogo preparations. (i) is a graph displaying experimental data where the effects of Nogo preparations on neurite outgrowth in cerebellar granule neurons was measured.
Assays of Nogo-A function have included growth cone collapse, neurite outgrowth, and fibroblast spreading with substrate-bound and soluble protein preparations (Caroni & Schwab, (1988) J. Cell Biol. 106, 1281-1288; GrandPré et al., (2000) Nature 403, 439-444; Chen et al., (2000) Nature 403, 434-439; Prinjha et al., (2000) Nature 403, 483-484). […] Since NI250 preparations and full length Nogo-A are non-permissive for 3T3 spreading, it was necessary to consider whether different domains of Nogo might subserve this in vitro activity. To facilitate a comparison of different Nogo-A domains, the acidic amino terminal 1040 amino acid fragment (Amino-Nogo) was expressed as a Myc-his tagged protein in HEK293T cells (FIG. 1d). The Nogo protein is present in cytosolic fractions. […]

PlexinA1 (PlexA1) = test: Growth cone collapse in E7 retinal ganglion cells infected with control HSV PlexinA1; type: cell-based
Excerpt: Both dorsal root ganglion and retinal neurons from E7 chick embryos were examined. The Nogo responses in the dorsal root ganglion neurons from this developmental stage are weak but slight responses can be detected in some cultures (data not shown).
Growth cone collapse in response to GST-hNogo-A (1055-1120) was investigated in infected RGC cultures. Retinal explants infected with recombinant viral preparations of PlexinA1 (PlexA1), wild-type NgR (wtNgR), NgRL1 chimeric receptor in which the GPI domain has been replaced by the transmembrane region and cytoplasmic tail from the mouse adhesion protein L1 (NgRL1), or NgR carboxy terminal deletion mutant (NgRΔCT) for 12 hr. Following infection, the cells were treated for 30 min with 0, 50, 250, or 500 nM GST-hNogo-A (1055-1120) (GrandPre et al., Nature 403: 439-444, 2000), fixed with 4% paraformaldehyde with 0.1 M PO4 and 20% sucrose, and stained with phalloidin. […] Cells infected with NgRΔCT were insensitive to GST-hNogo-A (1055-1120). The CT region of NgR is therefore required for effective NgR inhibitory signaling.

[1] = test system: NGF-differentiated PC12 cells; test: Axon outgrowth from NGF-differentiated PC12 cells; type: cell-based
Procedure: For all experiments involving cell culture, the following methods were employed. The culture of embryonic chick E10 and E12 dorsal root ganglion explants and dissociated neurons utilized methods described for E7 dorsal root ganglion cultures (Takahashi et al., (1998) Nature Neurosci. 1, 487-493; Takahashi et al., (1999) Cell 99, 59-69; Goshima et al., (1995) Nature 376, 509-514; Jin & Strittmatter, (1997) J. Neurosci. 7, 6256-6263). NGF-differentiated PC12 cells were cultured as described (Strittmatter et al., (1994) J. Neurosci. 14, 2327-2338). Embryonic spinal cord explants (rat E10 or chick E5) were cultured for 7-14 days in the presence of PDGF-AA to induce differentiation of some cells into mature oligodendrocytes (Vartanian et al., (1999) Proc. Natl. Acad. Sci. USA 96, 731-735). The procedure for growth cone collapse assays is identical to that for analysis of Sema3A-induced growth cone collapse (Takahashi et al., (1998) Nature Neurosci. 1, 487-493; Takahashi et al., (1999) Cell 99, 59-69; Goshima et al., (1995) Nature 376, 509-514; Jin & Strittmatter, (1997) J. Neurosci. 17, 6256-6263). The method for analysis of total neurite outgrowth has also been described (Goshima et al., (1995) Nature 376, 509-514; Jin & Strittmatter, (1997) J. Neurosci. 17, 6256-6263; Strittmatter et al., (1994) J. Neurosci. 14, 2327-2338). […]

B1: GST-Nogo: GST fusion protein of the 66 amino acid lumenal-extracellular fragment of Nogo-A, expressed in E. coli (protein)
chain: RIYKGVIQAIQKSDEGHPFRAYLESEVAISEELVQKYSNSALGHVNCTIKELRRLFLVDDLVDSLK
modifications: also: GST fusion protein
notes: GST fusion protein of the 66 amino acid lumenal-extracellular fragment of Nogo-A, expressed in E. coli
3T3 fibroblast spreading (in words) (3T3 fibroblasts): does not inhibit spreading
growth cone collapse response (in words) (PlexinA1 (PlexA1); listed as GST-hNogo-A (1055-1120)): did not respond
growth cone collapse response (in words) (PlexinA1 (PlexA1); listed as Nogo-66): does not alter Nogo responses
axonal outgrowth (in words) ([1]; bound to substrate surfaces): reduced to undetectable levels
axon outgrowth (in words) ([1]; soluble, nM concentrations): blocked
